Assay results reported in the RNAGym collection of RNA variant scans (doi:10.1101/gr.219683.116).

B1: mRNA-splicing (parent)
chain: AGUUGCUGCUGGGAGCUCCAGCACAGUGAAAUGGACAGAAGGGCAGAGCAA

Variants of: B1
Experiment: exon inclusion enrichment index; higher = more inclusion; WT1 exon 5 minigene, HEK293

Variant | exon inclusion enrichment index
U32G G33C | 0.143
U32G G33U | 0.0308
G33A | 0.0129
G33A G34A | 0.0101
G33A G34C | 0.0101
G33A G34U | 0.0122
G33C | 0.179
G33C G34A | 0.0659
G33C G34C | 0.0456
G33C G34U | 0.0871
G33U | 0.0261
G33U G34A | 0.00421
G33U G34C | 0.0208
G33U G34U | 0.0123
G34A | 0.0592
G34A A35C | 0.0806
G34A A35G | 0.0204
G34A A35U | 0.0211
G34C | 0.0362
G34C A35C | 0.00408
G34C A35G | 0.0695
G34C A35U | 0.0271
G34U | 0.0244
G34U A35C | 0.0394

Variant | exon inclusion enrichment index
G34U A35G | 0.142
G34U A35U | 0.0144
A35C | 0.041
A35C C36A | 0.0616
A35C C36G | 0.122
A35C C36U | 0.00835
A35G | 0.0494
A35G C36A | 0.0734
A35G C36G | 0.00669
A35G C36U | 0.00277
A35U | 0.0139
A35U C36A | 0.000875
A35U C36G | 0.00845
A35U C36U | 0.000825
C36A | 0.0939
C36A A37C | 0.209
C36A A37G | 0.0199
C36A A37U | 0.0531
C36G | 0.0745
C36G A37C | 0.127
C36G A37G | 0.0334
C36G A37U | 0.0724
C36U | 0.0249
C36U A37C | 0.0746

Variant | exon inclusion enrichment index
C36U A37G | 0.156
C36U A37U | 0.0501
A37C | 0.637
A37C G38A | 0.152
A37C G38C | 0.217
A37C G38U | 0.0604
A37G | 0.438
A37G G38A | 0.201
A37G G38C | 0.249
A37G G38U | 0.0457
A37U | 0.121
A37U G38A | 0.0367
A37U G38C | 0.0886
A37U G38U | 0.0123
G38A | 0.0459
G38A A39C | 0.13
G38A A39G | 0.186
G38A A39U | 0.00515
G38C | 0.09
G38C A39C | 0.158
G38C A39G | 0.21
G38C A39U | 0.00812
G38U | 0.029
G38U A39C | 0.125

Variant | exon inclusion enrichment index
G38U A39G | 0.0472
G38U A39U | 0.000945
A39C | 0.0251
A39C A40C | 0.407
A39C A40G | 0.223
A39C A40U | 0.0469
A39G | 0.074
A39G A40C | 0.199
A39G A40G | 0.0122
A39G A40U | 0.0108
A39U | 0.000772
A39U A40C | 0.276
A39U A40G | 0.0141
A39U A40U | 0.0388
A40C | 0.557
A40C G41A | 0.0344
A40C G41C | 0.92
A40C G41U | 0.0496
A40G | 0.0976
A40G G41A | 0.0243
A40G G41C | 0.927
A40G G41U | 0.153
A40U | 0.156
A40U G41A | 0.00196

Variant | exon inclusion enrichment index
A40U G41C | 0.701
A40U G41U | 0.0512
G41A | 0.0829
G41A G42A | 0.141
G41A G42C | 0.419
G41A G42U | 0.107
G41C | 0.866
G41C G42A | 0.238
G41C G42C | 0.703
G41C G42U | 0.907
G41U | 0.16
G41U G42A | 0.0358
G41U G42C | 0.49
G41U G42U | 0.192
G42A | 0.734
G42A G43A | 1.43
G42A G43C | 2.4
G42A G43U | 1.63
G42C | 0.853
G42C G43A | 0.623
G42C G43C | 0.757
G42C G43U | 0.634
G42U | 0.329
G42U G43A | 0.492

Variant | exon inclusion enrichment index
G42U G43C | 0.112
G42U G43U | 0.54
G43A | 0.774
G43A C44A | 0.778
G43A C44G | 0.723
G43A C44U | 0.129
G43C | 0.209
G43C C44A | 0.932
G43C C44G | 1.62
G43C C44U | 0.086
G43U | 0.11
G43U C44A | 0.00923
G43U C44G | 0.0978
G43U C44U | 0.0355
C44A | 0.507
C44A A45C | 0.767
C44A A45G | 0.233
C44A A45U | 0.469
C44G | 0.391
C44G A45C | 0.399
C44G A45G | 0.0345
C44G A45U | 0.0615
C44U | 0.0165
C44U A45C | 0.266

Variant | exon inclusion enrichment index
C44U A45G | 0.0801
C44U A45U | 0.0412
A45C | 0.223
A45C G46A | 0.0421
A45C G46C | 0.068
A45C G46U | 0.0235
A45G | 0.486
A45G G46A | 0.84
A45G G46C | 0.331
A45G G46U | 0.121
A45U | 0.318
A45U G46A | 0.0722
A45U G46C | 0.0947
A45U G46U | 0.0239
G46A | 0.245
G46A A47C | 0.547
G46A A47G | 0.0433
G46A A47U | 0.185
G46C | 0.155
G46C A47C | 0.227
G46C A47G | 0.339
G46C A47U | 0.224
G46U | 0.0964
